# Experimental data as given in the supplement of paper PMC7125110.
# ± gives the standard error. Fewer inactive variants are shown than the library holds.
# B1: glmS ribozyme (parent)
# chain: AUAAAAGCGCCAGAACUACAGAAAUGUAGUUGACGAGGAGGAGGUUUAUCGAAUUUUCGGCGGAUGCCUCCAAA
# Variants of: B1
# Test: self-cleavage kobs at 2500 uM GlcN6P; higher = faster cleavage; RNA array
# Details: with glucosamine-6-phosphate
# In short: (§1)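 Glucosamine-6-phosphate in HEPES/KCl/Mg(OAc)2 buffer, at 40 μM to 10 mM, was flowed over barcoded ribozyme variants transcribed in situ by E. coli RNA polymerase on sequenced MiSeq chips. Tracking was through a hybridised Cy3 probe at 37 °C. kobs, kcat and KM came from exponential decay fits and weighted Michaelis–Menten fits of normalised per-tile medians.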
row,Variant,self-cleavage kobs at 2500 uM GlcN6P [s⁻¹]
1,C11U C34G U54C,< 1e-05
2,C10A A12C G51U,< 1e-05
3,C10G A42C U65G,< 1e-05
4,C8A G35U A52U,< 1e-05
5,G7U U31C G32C G35C A36C C71U,< 1e-05
6,G9A A12C G59C,< 1e-05
7,C10A C11G G40U C50G A52U,< 1e-05
8,C11G U30C G37U,< 1e-05
9,G9U U30A G38A G40C U56A C70A,< 1e-05
10,C11A G21U,9.85e-05 ± 2.9e-05
11,C11U C34G A52U,< 1e-05
12,C11G U46G G59C U65G,0.000186 ± 8.3e-05
13,C10G A39G G66A C67U C71G,7e-05 ± 3.1e-05
14,C10G A14C A48C C50U,< 1e-05
15,C8G G9C G41A G60C C61A C68G,< 1e-05
16,C8U G9C C11G A14C U45G C50G C71G,< 1e-05
17,A12U A15U C50A G51A G59C,< 1e-05
18,C10U A33U G41U U49C G62C,< 1e-05
19,C11G G37U A53C,< 1e-05
20,C8G G9U C16A A53C,< 1e-05
21,C11G U47A C50G C70G,0.000352 ± 8.9e-05
22,A12U A33G G38U G44U G59A,< 1e-05
23,C11G G35A C61A,< 1e-05

row,Variant,self-cleavage kobs at 2500 uM GlcN6P [s⁻¹]
1,C11A A14G G29U,5.93e-05 ± 2.7e-05
2,G9U A52U C58G,< 1e-05
3,C10A G35U A48C,< 1e-05
4,C10A C11A G51U A52U,< 1e-05
5,G9C G13U A48G,< 1e-05
6,C8U A12U A48U G62C U65A,< 1e-05
7,G9U A14G C61A A64G C70G,6.76e-05 ± 2.1e-05
8,C8U G9U G13A G37A G41A,< 1e-05
9,A12G U54A C68G,5.86e-05 ± 1e-05
10,A12G C16U G29A G40A A42U U45G,8.49e-05 ± 2.3e-05
11,C10A G60C G63C C67A C68G C70G C71U,4.85e-05 ± 2.2e-05
12,A12C A33G C34U C50A A64U C70G,0.00011 ± 4.2e-05
13,C11U A15G G37C U47C U69G,0.000136 ± 5.1e-05
14,C8A G40C C67A,< 1e-05
15,C10G G41A C58G,< 1e-05
16,G9C C67A C70G,< 1e-05
17,C8U G37U G62U A64U,< 1e-05
18,G9C U45A,< 1e-05
19,C10A G29C U55A C70G,9.79e-05 ± 2.6e-05
20,A12G C61U C67U C68G,5.12e-05 ± 2.3e-05
21,A12C A39G U47C,0.00269 ± 0.00067
22,C8U U57G C71G,< 1e-05
23,C11A C50U C61U C67G,0.000136 ± 5.6e-05

row,Variant,self-cleavage kobs at 2500 uM GlcN6P [s⁻¹]
1,C8A C16G G38A A64G C68A,< 1e-05
2,C10U G35C G51U U56G G62U,< 1e-05
3,G9A C34A U49G,< 1e-05
4,C10U U45A,2.72e-05 ± 1.3e-05
5,C11G C50G C58A C61A,0.000322 ± 0.00011
6,C8U C34U G37A U54C,< 1e-05
7,C11U A36G G40U G44A C61A C71U,< 1e-05
8,A12C G13A A14G U31G,7.54e-05 ± 3e-05
9,A12C C16U U31G G41U G43U,< 1e-05
10,C8A A12U G44U,< 1e-05
11,A12C A15U U46A C71A,< 1e-05
12,A12U G29U U30A U31A,0.000126 ± 4.8e-05
13,C11G U55A C61A U69A C71G,0.000284 ± 8.5e-05
14,C10A C11U C70A,0.000126 ± 4.3e-05
15,C10G U46G U55A A64C U69G,< 1e-05
16,A12U G38U U49A,< 1e-05
17,C10A G29A A33G A48U,< 1e-05
18,C8U C10U G13U G29C C58U C61A C67A,0.000532 ± 0.00015
19,C10U G29U U57C,< 1e-05
20,G9A G35C A64C C71U,< 1e-05
21,C10U C11U A36C A42U A48C,< 1e-05
22,C11G G13U G29C,< 1e-05
23,C11A A33G G35U A52G,< 1e-05

row,Variant,self-cleavage kobs at 2500 uM GlcN6P [s⁻¹]
1,C8A C16U A36C A42U,< 1e-05
2,C8A C58A A64C,< 1e-05
3,C8G A36G G38A A52G U65G U69G,5.4e-05 ± 1.8e-05
4,C10G U47G G51A,< 1e-05
5,C10G G40C G59U,< 1e-05
6,C8A G41C C58U,< 1e-05
7,A12U C16U G43C G62C C70U,< 1e-05
8,G7U G41C C50U,< 1e-05
9,G9A G51U U56G G63C,< 1e-05
10,C11U G13C U46G A64U,< 1e-05
11,G9C U49A G51A C70U C71A,< 1e-05
12,C8A C16U A33U C68U,< 1e-05
13,A12G C16U U69G,6.28e-05 ± 2.8e-05
14,C10G A33G G51U,< 1e-05
15,C10U A33G A39G G41C C67U,< 1e-05
16,G9C C34U A53U,< 1e-05
17,C11U A15U G41C,< 1e-05
18,A12G C16U G43A U45C,< 1e-05
19,C10U G51U G60U,< 1e-05
20,G9U A14U A42C,< 1e-05
21,C11A U54A U55G,0.000135 ± 4.1e-05
22,G9C G37U C58U G62U A64U C70G,< 1e-05
23,G9U C50U C68U,< 1e-05

row,Variant,self-cleavage kobs at 2500 uM GlcN6P [s⁻¹]
1,C10U G40A G44C C70A,< 1e-05
2,C10U G29U A39G U57C C71A,< 1e-05
3,A12C C50G C70A,0.000246 ± 5.7e-05
4,C10G A14U G29C U49A A52G C67G,7.89e-05 ± 2.3e-05
5,C11U G29U C67G,0.000197 ± 6.6e-05
6,C10U G29U C61A C67G,0.000121 ± 2.9e-05
7,G9A G40U G63A A64U,< 1e-05
8,C8U C11U U30A A52C U69G,< 1e-05
9,C8A G13U U56G A64G,< 1e-05
10,A12G A14G G32U A33U G51C,< 1e-05
11,C11U A33U G59A,0.000169 ± 6.1e-05
12,G7U G32A A48G U54A,< 1e-05
13,G7U G35U U54C G60A C67G C68A,5.54e-05 ± 9.5e-06
14,C8A A12C A36U G59U,< 1e-05
15,G9U A12C U30C,< 1e-05
16,C8G A33U U56G G59U,< 1e-05
17,C11G A14G G43U G60C,< 1e-05
18,C10G G13C A42U A52C,< 1e-05
19,C10G G35A G66A,< 1e-05
20,G9U G13U A14G G37A G60C C71U,< 1e-05
21,C8U G9U A15U G44U,< 1e-05
22,C8G A14U A39G,< 1e-05
23,A12G A14C A15C,6.38e-05 ± 2.6e-05

row,Variant,self-cleavage kobs at 2500 uM GlcN6P [s⁻¹]
1,C11A G32A G43C U46A C50A G60A,< 1e-05
2,C8G G29U A36C A48G C70U,< 1e-05
3,A12G A64U C67G,< 1e-05
4,C8G A52G U55G C67G C68U,5.08e-05 ± 1.6e-05
5,C11U U31C G41U A64G C70A,0.0011 ± 0.0003
6,G9A A39G A52C,< 1e-05
7,A12G A15U G35A,< 1e-05
8,C11U U31A G32A G38A C70G,7.58e-05 ± 2.6e-05
9,G7U G35U C50U,< 1e-05
10,G9A C10U U31C G44A,< 1e-05
11,C8U C34U G41U,< 1e-05
12,C8U C16G G29C,< 1e-05
13,G9C A39U U45C C58U,< 1e-05
14,G9C A15G U45G,< 1e-05
15,A12C G38C C71U,< 1e-05
16,A12U A14U G66A,0.000704 ± 0.00016
17,C8A C58A G59C,< 1e-05
18,C8A G40C U47A A64U,< 1e-05
19,G9U U31C G43C C67U,< 1e-05
20,A12U A14G G32U,0.000861 ± 0.00015
21,C8U A14U G32U G41C C67U,< 1e-05
22,C8U G60U C70G,< 1e-05
23,A12G G21U U47G U65A,6.16e-05 ± 1.7e-05

row,Variant,self-cleavage kobs at 2500 uM GlcN6P [s⁻¹]
1,A12G G51U U56G,< 1e-05
2,C10U C11U A15C C34A,< 1e-05
3,C11G G13C C50A A53G U55A,< 1e-05
4,C8G G21U U55G G60U C67G,< 1e-05
5,A12C U46C C70A,3.42e-05 ± 1.2e-05
6,A12C C16U G40A,0.00176 ± 0.00038
7,C10U A14C A15U G41A,< 1e-05
8,C11U A52C C68U C71G,0.0003 ± 0.00014
9,A12C U45A C67G,0.000527 ± 0.00016
10,C10U C58A C71U,< 1e-05
11,C10U G13U A52U,< 1e-05
12,G9A C16G U69A,< 1e-05
13,G9A U54G G62A,< 1e-05
14,C8A G59C C67G,< 1e-05
15,C10U G35U G43C,< 1e-05
16,G7U U30G A33U G44C,< 1e-05
17,C10G A12G U47G U54C C68U,< 1e-05
18,C11U U30A G37C U49A,< 1e-05
19,C11U U46A G62A,< 1e-05
20,C11U U46A G62U,< 1e-05
21,C11G G26U G43C,< 1e-05

# Variants of: B1
# Test: self-cleavage kobs at 10000 uM GlcN6P; higher = faster cleavage; RNA array
# Details: with glucosamine-6-phosphate
# In short: as §1
row,Variant,self-cleavage kobs at 10000 uM GlcN6P [s⁻¹]
1,G9U U30A G38A G40C U56A C70A,< 1e-05
2,C11A G21U,0.000164 ± 3.4e-05
3,C11U C34G A52U,< 1e-05
4,A12G C16U G29A G40A A42U U45G,8.82e-05 ± 1.6e-05
5,C10U U45A,2.12e-05 ± 8.6e-06
6,A12U G29U U30A U31A,0.000361 ± 0.00013
7,C11A A33G G35U A52G,< 1e-05
8,C11U G13C U46G A64U,< 1e-05
9,C10G A33G G51U,< 1e-05
10,C10U A33G A39G G41C C67U,< 1e-05
11,C10U G51U G60U,< 1e-05
12,C11A U54A U55G,0.000124 ± 1.8e-05
13,C11U A33U G59A,0.000262 ± 5.4e-05
14,C8G A14U A39G,< 1e-05
15,A12G A64U C67G,< 1e-05
16,C8G A52G U55G C67G C68U,3.18e-05 ± 1.4e-05
17,A12U A14G G32U,0.00275 ± 0.00043
